Reference: PMC5483951

Biological target: hnRNP F/H (human (endogenous in 293))
Assay: co-IP; extracts of 293 cells expressing FLAG-SRSF10, RS1-FLAG, RS2-FLAG or RS1-ΔΔ-FLAG, lysed in NET-2 buffer (50 mM Tris-HCl pH 7.4, 150 mM NaCl, 0.05% NP-40), treated with RNase A; anti-hnRNP F, H or K antibodies on protein G magnetic beads, overnight at 4°C; blot with anti-FLAG; cells treated or not with oxaliplatin

FLAG-SRSF10, sequence (O75494 whole entry): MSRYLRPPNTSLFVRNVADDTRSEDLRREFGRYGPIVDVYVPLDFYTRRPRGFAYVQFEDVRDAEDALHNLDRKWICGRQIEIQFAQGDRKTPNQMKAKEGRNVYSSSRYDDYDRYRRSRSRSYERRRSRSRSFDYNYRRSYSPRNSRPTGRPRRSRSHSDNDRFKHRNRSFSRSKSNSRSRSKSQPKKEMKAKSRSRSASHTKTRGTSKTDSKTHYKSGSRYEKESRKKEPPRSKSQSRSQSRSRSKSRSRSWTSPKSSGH

## FLAG-SRSF10 (from UniProt O75494 1-262) (natural protein)
  percent of total SRSF10 associated: 0.5 to 1%
